Results as given in US20220220204A1 (published 2022).
Substitutions are numbered along the chain they refer to. Where two headings read alike, the source gives them in different places.

T1: LAG-3 expressed on CHO-K1 cells (UniProt P18627 23-525)
T1 chain: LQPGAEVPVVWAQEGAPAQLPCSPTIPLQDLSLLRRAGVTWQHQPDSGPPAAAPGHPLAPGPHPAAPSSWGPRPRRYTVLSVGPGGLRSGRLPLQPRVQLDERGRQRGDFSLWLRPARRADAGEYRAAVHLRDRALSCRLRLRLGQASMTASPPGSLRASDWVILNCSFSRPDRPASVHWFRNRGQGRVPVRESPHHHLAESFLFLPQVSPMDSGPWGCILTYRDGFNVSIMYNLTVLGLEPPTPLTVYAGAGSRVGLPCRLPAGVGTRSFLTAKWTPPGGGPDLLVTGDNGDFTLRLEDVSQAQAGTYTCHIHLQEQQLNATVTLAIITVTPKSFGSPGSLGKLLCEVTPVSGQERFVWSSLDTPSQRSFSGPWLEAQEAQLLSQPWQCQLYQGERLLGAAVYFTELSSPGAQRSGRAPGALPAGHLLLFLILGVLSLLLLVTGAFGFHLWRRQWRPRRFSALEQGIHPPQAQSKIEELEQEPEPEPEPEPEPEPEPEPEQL

B1: PDL1HCv1 (antibody, V domains shown)
VH: EVQLVQSGAEVKKPGASVKVSCKASGYIFTGYGITWVRQAPGQGLEWMGEIFPRRVQTYYSEKFKGRVTMTTDTSTSTAYMELRSLRSDDTAVYYCARDYDPYFALDYWGQGTTVTVSS
VL: DIQMTQSPSSLSASVGDRVTITCRASQDVSTAVDWYQQKPGKAPKLLIYSASYRYTGVPDRFSGSGSGTDFTFTISSLQPEDIATYYCQQHYSIPFTFGQGTKLEIKR
B2: PDL1HCv5 (antibody, V domains shown)
VH: B1 VH with T72A
VL: B1 VL

What was measured:
Experiment in all cases: FACS binding
[1] = biological target: T2, PD-L1 expressed on CHO-K1 cells (UniProt Q9NZQ7 19-290)
[2] = biological target: T1, LAG-3 expressed on CHO-K1 cells
[3] = biological target: T2, PD-L1 expressed on CHO-K1 cells; remark: listed apart in the source
[4] = biological target: T1, LAG-3 expressed on CHO-K1 cells

T2 sequence (Q9NZQ7 19-290): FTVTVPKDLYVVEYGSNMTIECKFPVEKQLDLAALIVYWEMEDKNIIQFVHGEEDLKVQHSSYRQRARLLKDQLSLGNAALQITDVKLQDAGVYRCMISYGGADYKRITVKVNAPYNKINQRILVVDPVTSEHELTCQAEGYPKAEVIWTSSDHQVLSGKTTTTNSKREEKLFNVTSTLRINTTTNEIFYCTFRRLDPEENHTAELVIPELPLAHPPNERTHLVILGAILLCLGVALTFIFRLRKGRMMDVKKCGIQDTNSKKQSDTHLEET

Row | Binder | EC50 [1] | EC50 [2] | EC50 [3] | EC50 [4]
1 | B1 | 0.651 nM | 0.0376 nM | 0.205 nM | 
2 | B2 | 0.311 nM |  |  | 8.42 nM
